Assays:
[1] = target: T1, human MDR1 (multidrug resistance protein 1) (human, UniProt P08183 1-1280); assay: cell-based or functional assay
[2] = target: T2, cynomolgus MDR1 (Macaca fascicularis) (Macaca fascicularis (cynomolgus), UniProt P08183 1-1280 (human entry)); assay: flow cytometry
T2 construct: also called cB1; cynomolgus ABCB1

[3] = target: T2, cynomolgus MDR1 (Macaca fascicularis); assay: flow cytometry on cells expressing cynomolgus MDR1
[4] = target: T1, human MDR1 (multidrug resistance …); assay: flow cytometry
[5] = target: T2, cynomolgus MDR1 (Macaca fascicularis); assay: flow cytometry, 293T cells transfected with cynomolgus MDR1
[6] = target: T1, human MDR1 (multidrug resistance …); assay: flow cytometry, 293T cells overexpressing human MDR1

Binder | IC50 of vincristine on N6/ADR cells with antibody [1] [pM] | binding result [5] | further results
B1.129 (antibody, human IgG1, V domains shown, expressed with human IgG1 heavy and human kappa light constant regions; also called KNJY B1-129; KB1.129) VH: EVQLQQSGPELVKPGASVKMSCKASGYTFSTYVIHWVKQKPGQGLEWIGYIYPYNDYTKYNEKFKDKATLTSDKSSSTAYMEIRSLTSEDSAVYYCSRAYYGNLVGYGVDYWGQGTSVTVSS VL: QIVLTQSPAILPASPGEKVTMTCRASSSVSFIYWYQQRPGSSPKPWIFATSNLASGVPARFSGSGSGTSYSLTISRVEAEDAATYYCHQWGSNLPTFGGGTKLEIK | 13.2 |  | binding result [2]: binds
B1.261 (antibody, human IgG1, V domains shown, expressed with human IgG1 heavy and human kappa light constant regions; also called KNJY B1-261; KB1.261) VH: QVQLKESGPGLVAPSQSLSITCTVSGFSLTSYGVHWVRQPPGKGLEWLVVIWSDGSTTYNSALKSRLSISKDNSKSQVFLKMNSLQIDDTAMYYCARHGRWLLQRGGAMDYWGQGTSVTVSS VL: DVVMTQAPKFMSTSVGDRVSVTCRASQNVGSYIAWYQQKLGQSPKALIYSASYRCSGVPDRFTGSGAGTDFTLTIRNVQSEDLAEYFCQQYNSYPLTFGGGTKLEIK | 3.8 |  | binding result [3]: binds
B1.129.huH1-huL1(KV3) (antibody, human IgG1, V domains shown, Humanized B1.129; Human IgG1/kappa constant regions; also called B1.129.hz1) VH: EVQLVQSGAEVKKPGASVKVSCKASGYTFSTYVIHWVRQAPGQGLEWIGYIYPYNDYTKYNEKFKDRATLTSDKSTSTAYMELRSLRSDDTAVYYCSRAYYGNLVGYGVDYWGQGTTVTVSS VL: EIVLTQSPATLSLSPGERATLSCRASSSVSFIYWYQQKPGQSPRPWIFATSNLASGVPARFSGSGSGTDYTLTISSLEPEDFAVYYCHQWGSNLPTFGGGTKLEIK |  | binds | binding result [4]: binds
B1.129.huH1-huL1(KV1) (antibody, human IgG1, V domains shown, Humanized B1.129; Human IgG1/kappa constant regions; also called B1.129.hz2) VH: EVQLVQSGAEVKKPGASVKVSCKASGYTFSTYVIHWVRQAPGQGLEWIGYIYPYNDYTKYNEKFKDRATLTSDKSTSTAYMELRSLRSDDTAVYYCSRAYYGNLVGYGVDYWGQGTTVTVSS VL: DIQLTQSPSSLSASVGDRVTITCRASSSVSFIYWYQQKPGKSPKPWIFATSNLASGVPSRFSGSGSGTDYTLTISSLQPEDFATYYCHQWGSNLPTFGGGTKLEIK |  | no binding | binding result [6]: no binding

Source: US20230203156A1 (WILLIAM ROBERT ARATHOON LIVING TRUST DATED AUGUST 29 2016, published 2023)
